Reference: patent publication US20060015973, “Environmental stress-tolerant plants” (Independent Admin. Institute, Japan International Research …, published 2006)

What was measured:
[1] = target: T1, GST-DREB2A (fragment encoded by cDNA nt 167-666) (Arabidopsis thaliana, UniProt O82132 SEQ:1-166); assay: EMSA; room temperature 20 min; 6% gel 0.25x TBE; conditions: tags: N-terminal GST (pGEX-4T-1), E. coli JM109; label: 32P
Description: (§1) E. coli in which the fusion protein had been induced was suspended in 13 ml of buffer (10 mM Tris-HCl, 0.1 mM DTT, 0.1 mM phenylmethylsulfonyl fluoride). Then, 1% Triton X-100 and 1 mM EDTA were added thereto. After the cells were disrupted by sonication, the disrupted material was centrifuged at 22,000×g for 20 min. Then, the fusion protein of DREB1A (or DREB2A) and GST was purified by affinity chromatography using glutathione-Sepharose (Pharmacia) as a carrier. The resultant fusion protein was incubated with the DRE-containing 71 bp DNA fragment probe prepared by PCR and radiolabelled with ³²P at room temperature for 20 min. This mixture was electrophoresed using 6% acryl amide gel containing 0.25× Tris-borate-EDTA at 100 V for 2 hr. […] As is clear from this Figure, a band which migrated behind was detected when the fusion protein was incubated with the DRE-containing 71 bp DNA fragment probe (SEQ ID NO: 18). When a DNA fragment containing a varied DRE sequence (SEQ ID NO: 19, 20 or 21) was used, such a band was not detected. On the other hand, when a DNA fragment which was partly varied outside of DRE sequence (SEQ ID NO: 22 or 23) was used as a probe, a behind band was detected. Thus, it was shown that DREB1A or DREB2A protein specifically bound to DRE sequence.

[2] = target: T2, GST-DREB1A (fragment encoded by cDNA nt 119-547) (Arabidopsis thaliana, UniProt Q9M0L0 SEQ:1-143); assay: EMSA; room temperature 20 min; 6% gel 0.25x TBE; conditions: tags: N-terminal GST (pGEX-4T-1), E. coli JM109; label: 32P
Description: as §1

[3] = target: T1, GST-DREB2A (fragment encoded by cDNA nt …); assay: EMSA; no shifted band; conditions: tags: N-terminal GST (pGEX-4T-1), E. coli JM109; label: 32P
Description: as §1

[4] = target: T2, GST-DREB1A (fragment encoded by cDNA nt …); assay: EMSA; no shifted band; conditions: tags: N-terminal GST (pGEX-4T-1), E. coli JM109; label: 32P
Description: as §1

[5] = target: T1, GST-DREB2A (fragment encoded by cDNA nt …); assay: EMSA; shifted band; conditions: tags: N-terminal GST (pGEX-4T-1), E. coli JM109; label: 32P
Description: as §1

[6] = target: T2, GST-DREB1A (fragment encoded by cDNA nt …); assay: EMSA; shifted band; conditions: tags: N-terminal GST (pGEX-4T-1), E. coli JM109; label: 32P
Description: as §1

[7] = target: DREB2A delta136-165 (constitutive active form) (Arabidopsis thaliana, UniProt O82132 SEQ:1-335, del136-165); assay: cell_activity; GUS transactivation vs basal, T87 protoplasts; >3x full length
Description: Isolation of Arabidopsis T87 cell protoplasts and polyethylene glycol-mediated DNA transfection were performed as described previously (Abel and Theologis, 1994 Plant J. 5, 421-427). Five-day-old Arabidopsis T87 suspension cultured cells were collected by filtration and washed with water. Five grams of T87 cells were incubated with enzyme solution (0.4M mannitol, 5 mM MES-KOH (pH 5.7), 8 mM CaCl₂, 1% [w/v] Cellulase ONOZUKA R10 (Yakult), 0.5% [w/v] Macerozyme R10 (Yakult)) at room temperature for 2 hours with gentle agitation. Cells were passed through 125 μm nylon mesh, recovered by centrifugation at 450 g for 5 minutes at room temperature and washed twice in 30 ml of […], 70 mM CaCl₂, and 5 mM MES-KOH (pH 5.7). Finally protoplasts were resuspended in MaMg solution (0.4 M mannitol, 15 mM MgCl₂, 5 mM MES-KOH (pH 5.7)) and concentration was adjusted to 3×10⁶ cell/ml. The isolated protoplasts were kept on ice until use. Plasmid DNAs used for protoplast transformation were prepared by using a QINGEN plasmid isolation kit (QIAGEN) and dissolved in 10 mM Tris-HCl (pH 8.0), and 1 mM EDTA at 1 μg/μL. One hundred μL of protoplast suspension was mixed well with 10 μL of effector plasmid, 10 μL of reporter plasmid and 5 μL of 35S:Luciferase internal control plasmid. […]

T1 sequence (O82132 1-166): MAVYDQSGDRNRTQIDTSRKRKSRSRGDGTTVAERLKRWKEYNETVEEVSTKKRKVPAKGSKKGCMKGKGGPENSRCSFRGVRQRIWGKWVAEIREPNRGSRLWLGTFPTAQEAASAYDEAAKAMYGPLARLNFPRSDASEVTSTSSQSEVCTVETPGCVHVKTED
T2 sequence (Q9M0L0 1-143): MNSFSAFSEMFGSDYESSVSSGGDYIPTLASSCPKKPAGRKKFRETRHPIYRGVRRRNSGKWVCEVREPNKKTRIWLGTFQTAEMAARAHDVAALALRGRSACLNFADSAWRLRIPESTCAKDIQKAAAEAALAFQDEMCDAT
Chain of DREB2A delta136-165 (constitutive active form) (O82132 other isoform, or with tags, fused parts or gaps del136-165 | mutant): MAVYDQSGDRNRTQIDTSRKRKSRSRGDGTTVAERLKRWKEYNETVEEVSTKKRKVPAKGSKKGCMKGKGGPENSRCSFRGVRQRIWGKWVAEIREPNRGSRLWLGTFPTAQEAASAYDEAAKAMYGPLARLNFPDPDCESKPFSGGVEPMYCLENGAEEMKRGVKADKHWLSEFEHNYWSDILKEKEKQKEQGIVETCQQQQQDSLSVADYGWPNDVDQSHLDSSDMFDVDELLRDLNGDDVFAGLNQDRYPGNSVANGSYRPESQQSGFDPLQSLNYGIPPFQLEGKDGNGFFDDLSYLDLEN

B1: rd29A promoter 71 bp DRE probe (wild type) (dsDNA)
DNA 1: CAGTTTGAAAGAAAAGGGAAAAAAAGAAAAAATAAATAAAAGATATACTACCGACATGAGTTCCAAAAAGC
DNA 2: GCTTTTTGGAACTCATGTCGGTAGTATATCTTTTATTTATTTTTTCTTTTTTTCCCTTTTCTTTCAAACTG
binding result [1]: binds | binding result [2]: binds

B2: 71 bp probe, DRE mutant (SEQ 20) (dsDNA)
DNA 1: CAGTTTGAAAGAAAAGGGAAAAAAAGAAAAAATAAATAAAAGATATACTACTTTTATGAGTTCCAAAAAGC
DNA 2: GCTTTTTGGAACTCATAAAAGTAGTATATCTTTTATTTATTTTTTCTTTTTTTCCCTTTTCTTTCAAACTG
binding result [3]: no binding | binding result [4]: no binding

B3: 71 bp probe, mutated outside DRE (SEQ 22) (dsDNA)
DNA 1: CAGTTTGAAAGAAAAGGGAAAAAAAGAAAAAATAAATAAAAGATATACTACCGACATGATCAACAAAAAGC
DNA 2: GCTTTTTGTTGATCATGTCGGTAGTATATCTTTTATTTATTTTTTCTTTTTTTCCCTTTTCTTTCAAACTG
binding result [5]: binds | binding result [6]: binds

B4: DRE-containing 71 bp rd29A region in GUS reporter (3 tandem copies) (dsDNA)
DNA 1: CAGTTTGAAAGAAAAGGGAAAAAAAGAAAAAATAAATAAAAGATATACTACCGACATGAGTTCCAAAAAGC
DNA 2: GCTTTTTGGAACTCATGTCGGTAGTATATCTTTTATTTATTTTTTCTTTTTTTCCCTTTTCTTTCAAACTG
activity [7]: > 30 fold

B5: 71 bp probe, DRE mutant (SEQ 21) (dsDNA)
DNA 1: CAGTTTGAAAGAAAAGGGAAAAAAAGAAAAAATAAATAAAAGATATACTACCGACAAAAGTTCCAAAAAGC
DNA 2: GCTTTTTGGAACTTTTGTCGGTAGTATATCTTTTATTTATTTTTTCTTTTTTTCCCTTTTCTTTCAAACTG
binding result [3]: no binding | binding result [4]: no binding

B6: 71 bp probe, DRE mutant (SEQ 19) (dsDNA)
DNA 1: CAGTTTGAAAGAAAAGGGAAAAAAAGAAAAAATAAATAAAAGATATATTTTCGACATGAGTTCCAAAAAGC
DNA 2: GCTTTTTGGAACTCATGTCGAAAATATATCTTTTATTTATTTTTTCTTTTTTTCCCTTTTCTTTCAAACTG
binding result [3]: no binding | binding result [4]: no binding

B7: 71 bp probe, mutated outside DRE (SEQ 23) (dsDNA)
DNA 1: CAGTTTGAAAGAAAAGGGAAAAAAAGAAAAAATAAATAAAAGATATACTACCGACATGAGTTCGGTTAAGC
DNA 2: GCTTAACCGAACTCATGTCGGTAGTATATCTTTTATTTATTTTTTCTTTTTTTCCCTTTTCTTTCAAACTG
binding result [5]: binds | binding result [6]: binds
